Data published in patent US20240116985A1 (published 2024).
Starred links: 1 amine or outer side, 2 acyl side, 3 side chain; linkers in the order of their positions; H or OH if unused. Positions of bridges follow the written chain, without caps; N, C: chain ends. Non-standard residues stand in square brackets, D forms with d. Primed or numbered codes have the meaning given here. PyrS2″ = (S)-3-amino-1-((pent-4-en-1-yloxy)carbonyl)pyrrolidine-3-carboxylic acid (stapling residue), C=CCCCOC(=O)N1CC[C@@](N[*:1])(C(=O)[*:2])C1; B5(4) = 2,2-bis(4-pentenyl)glycine = 2-amino-2-(pent-4-en-1-yl)hept-6-enoic acid (stitching residue), C=CCCCC(CCCC=C)(N[*:1])C(=O)[*:2]; TfeGA = (S)-2-amino-3-((carboxymethyl)(2,2,2-trifluoroethyl)amino)propanoic acid, O=C([C@H](CN(CC(=O)[*:3])CC(F)(F)F)N[*:1])[*:2]; PyrS2 = (S)-3-amino-1-((pent-4-en-1-yloxy)carbonyl)pyrrolidine-3-carboxylic acid, C=CCCCOC(=O)N1CC[C@@](N[*:1])(C(=O)[*:2])C1; B5(19) = 2-amino-2-(pent-4-en-1-yl)hept-6-enoic acid (bis(4-pentenyl)glycine), C=CCCCC(CCCC=C)(N[*:1])C(=O)[*:2]; B5(3) = 2,2-bis(4-pentenyl)glycine (stitching residue), C=CCCCC(CCCC=C)(N[*:1])C(=O)[*:2]; AspSH = (S)-2-amino-4-mercapto-4-oxobutanoic acid, O=C(C[C@H](N[*:1])C(=O)[*:2])S[*:3]; B5 = 2-amino-2-(pent-4-en-1-yl)hept-6-enoic acid, C=CCCCC(CCCC=C)(N[*:1])C(=O)[*:2]; AcLys″ = N6-acetyl-lysine, CC(=O)NCCCC[C@H](N[*:1])C(=O)[*:2]; Phe(F5) = N[C@@H](Cc1c(F)c(F)c(F)c(F)c1F)C(=O)O; Phe(2-CF3) = N[C@@H](Cc1ccccc1C(F)(F)F)C(=O)O; Phe(2-Cl) = N[C@@H](Cc1ccccc1Cl)C(=O)O; Ala(cPent) = N[C@@H](CC1CCCC1)C(=O)O; Bta = N[C@@H](Cc1csc2ccccc12)C(=O)O; hTyr = N[C@@H](CCc1ccc(O)cc1)C(=O)O; αAllylPro = C=CC[C@@]1(C(=O)O)CCCN1; tBuAla = CC(C)(C)C[C@H](N)C(=O)O; 3Thi = N[C@@H](Cc1ccsc1)C(=O)O; PyrS2(4) = not defined here; hSer = N[C@@H](CCO)C(=O)O; Nle = CCCC[C@H](N)C(=O)O

B1: I-1794 (peptide)
peptide: Ac-[αAllylPro]D[tBuAla][B5(3)]DHAAF[hSer][PyrS2″][3Thi][Bta]Q-NH2
modifications: staple 1-4, 4-11; not fully specified; printed as Ac-PL3-Asp-Npg-B5-Asp-His-Ala-Ala-Phe-Hse-PyrS2-3Thi-BztA-Gln-NH2
B2: I-1796 (peptide)
peptide: Ac-[αAllylPro]D[tBuAla][B5(3)]DHAAFL[PyrS2″][3Thi][Bta]Q-NH2
modifications: staple 1-4, 4-11; not fully specified; printed as Ac-PL3-Asp-Npg-B5-Asp-His-Ala-Ala-Phe-Leu-PyrS2-3Thi-BztA-Gln-NH2

Target: T1, B-cat-Halo (UniProt P35222 1-781)
T1 sequence (looked up): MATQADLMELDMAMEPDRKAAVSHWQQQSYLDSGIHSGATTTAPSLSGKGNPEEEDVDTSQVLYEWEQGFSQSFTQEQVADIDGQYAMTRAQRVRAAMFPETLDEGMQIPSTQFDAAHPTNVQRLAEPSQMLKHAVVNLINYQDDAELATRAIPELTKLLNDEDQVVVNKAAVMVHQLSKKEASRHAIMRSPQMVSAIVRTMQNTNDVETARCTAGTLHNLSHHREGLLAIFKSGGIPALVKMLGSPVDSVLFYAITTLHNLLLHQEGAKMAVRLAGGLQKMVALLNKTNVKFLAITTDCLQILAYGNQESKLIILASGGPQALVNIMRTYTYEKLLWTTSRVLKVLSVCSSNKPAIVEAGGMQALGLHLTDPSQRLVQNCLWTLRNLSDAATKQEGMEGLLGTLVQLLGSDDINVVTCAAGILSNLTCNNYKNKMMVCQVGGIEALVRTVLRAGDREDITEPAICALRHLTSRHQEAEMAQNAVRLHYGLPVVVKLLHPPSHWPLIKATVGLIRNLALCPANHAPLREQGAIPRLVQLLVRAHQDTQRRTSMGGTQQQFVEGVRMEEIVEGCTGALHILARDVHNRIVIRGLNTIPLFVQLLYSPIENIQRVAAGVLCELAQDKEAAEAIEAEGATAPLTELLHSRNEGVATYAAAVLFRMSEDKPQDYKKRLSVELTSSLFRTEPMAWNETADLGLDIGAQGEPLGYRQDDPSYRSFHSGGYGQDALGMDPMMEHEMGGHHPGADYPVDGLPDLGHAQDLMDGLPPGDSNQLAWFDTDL
Assay: cell-based or functional assay

Row | Binder | NanoBRET Abs IC50 [µM]
1 | Ac-[αAllylPro]D[tBuAla][B5(4)]D[TfeGA]AAFL[PyrS2″][3Thi][Bta][AcLys″]-NH2 (staple 1-4, 4-11; also: -CH=CH- in each staple reduced to -CH2-CH2-) [I-1719] | 27.6
2 | Ac-[αAllylPro]D[tBuAla][B5(4)]D[TfeGA]AAFL[PyrS2″][3Thi][Bta]N-NH2 (staple 1-4, 4-11; also: -CH=CH- in each staple reduced to -CH2-CH2-) [I-1715] | 38.4
3 | Ac-[αAllylPro]D[tBuAla][B5(4)]D[TfeGA]AAFL[PyrS2″]F[Bta]Q-NH2 (staple 1-4, 4-11; also: -CH=CH- in each staple reduced to -CH2-CH2-) [I-1711] | 33.3
4 | Ac-[αAllylPro]D[tBuAla][B5(4)]D[TfeGA]AAFL[PyrS2″][Ala(cPent)][Bta]Q-NH2 (staple 1-4, 4-11; also: -CH=CH- in each staple reduced to -CH2-CH2-) [I-1713] | > 20
5 | Ac-[αAllylPro][AspSH][tBuAla][B5]DDAAFN[PyrS2][Phe(2-Cl)][Bta]Q-NH2 (staple 1-4, 4-11; not fully specified) [I-1721] | > 20
6 | Ac-[αAllylPro]D[tBuAla][B5(4)]D[TfeGA]AAFL[PyrS2″][Phe(2-CF3)][Bta]Q-NH2 (staple 1-4, 4-11; also: -CH=CH- in each staple reduced to -CH2-CH2-) [I-1714] | 28.6
7 | Ac-[αAllylPro]D[tBuAla][B5(4)]D[TfeGA]AAFL[PyrS2″][3Thi][Bta]T-NH2 (staple 1-4, 4-11; also: -CH=CH- in each staple reduced to -CH2-CH2-) [I-1716] | 21.7

Target: T2, B-cat-Halo (UniProt P35222 2-781)
T2 sequence (looked up): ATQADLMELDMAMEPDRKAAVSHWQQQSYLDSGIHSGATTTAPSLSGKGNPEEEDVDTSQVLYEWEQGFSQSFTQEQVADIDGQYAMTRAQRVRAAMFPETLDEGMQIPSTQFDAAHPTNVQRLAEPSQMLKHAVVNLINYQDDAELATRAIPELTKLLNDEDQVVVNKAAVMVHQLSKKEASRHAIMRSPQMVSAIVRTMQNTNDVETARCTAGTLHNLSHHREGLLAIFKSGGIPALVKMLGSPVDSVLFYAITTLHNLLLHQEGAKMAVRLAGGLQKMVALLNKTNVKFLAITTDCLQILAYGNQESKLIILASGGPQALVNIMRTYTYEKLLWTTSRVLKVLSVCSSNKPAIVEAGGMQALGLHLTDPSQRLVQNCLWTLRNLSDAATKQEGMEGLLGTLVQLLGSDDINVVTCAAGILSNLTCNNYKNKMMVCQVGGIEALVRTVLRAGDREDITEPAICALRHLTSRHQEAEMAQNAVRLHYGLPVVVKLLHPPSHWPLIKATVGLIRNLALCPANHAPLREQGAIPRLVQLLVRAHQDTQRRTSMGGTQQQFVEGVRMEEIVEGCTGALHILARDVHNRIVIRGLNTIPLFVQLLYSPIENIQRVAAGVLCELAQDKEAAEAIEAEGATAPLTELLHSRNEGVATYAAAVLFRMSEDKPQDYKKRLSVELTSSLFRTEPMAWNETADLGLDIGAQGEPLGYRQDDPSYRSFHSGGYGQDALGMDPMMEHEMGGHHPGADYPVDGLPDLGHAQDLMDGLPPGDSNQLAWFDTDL
Assay: cell-based or functional assay

Row | Binder | NanoBRET Abs IC50 [µM]
8 | Ac-[αAllylPro]D[tBuAla][B5(19)]D[TfeGA]AAF[Nle][PyrS2][3Thi][Bta]Q-NH2 (staple 1-4, 4-11) [I-1776] | 10.5
9 | B1 | 37.7
10 | Ac-[αAllylPro]D[tBuAla][B5(19)]D[Phe(F5)]AAF[hSer][PyrS2][3Thi][Bta]Q-NH2 (staple 1-4, 4-11) [I-1791] | > 20
11 | B2 | > 20
12 | Ac-[αAllylPro]D[tBuAla][B5(3)]DHAAFL[PyrS2(4)][3Thi][Bta]Q-NH2 (staple 1-4, 4-11; not fully specified; reading uncertain) [I-1795] | 22.8
13 | Ac-[αAllylPro]D[Nle][B5(19)]D[TfeGA]AAFL[PyrS2][3Thi][Bta]Q-NH2 (staple 1-4, 4-11) [I-1777] | 8.7
14 | Ac-[αAllylPro]D[tBuAla][B5(19)]D[hTyr]AAF[hSer][PyrS2][3Thi][Bta]Q-NH2 (staple 1-4, 4-11) [I-1786] | > 20
